The experiment concerns the target eIF4E in B lymphocytes from patients suffering from CLL (human (patients' cells);  for …, UniProt P06730 2-217, limits assumed). As to the kind of experiment: cell-based or functional assay.

One molecule from patent US20120172315A1 (CENTRE NATIONAL DE LA RECHERCHE SCIENTIFIQUE, published 2012) can be followed below.

Chain of eIF4E in B lymphocytes from patients suffering from CLL (P06730 2-217 limits assumed): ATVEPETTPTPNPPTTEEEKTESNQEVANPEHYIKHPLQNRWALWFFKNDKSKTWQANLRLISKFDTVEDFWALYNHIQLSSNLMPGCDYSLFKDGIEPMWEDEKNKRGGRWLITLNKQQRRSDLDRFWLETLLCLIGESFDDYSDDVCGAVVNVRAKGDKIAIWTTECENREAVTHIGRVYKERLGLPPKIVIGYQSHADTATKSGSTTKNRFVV

With RRKYGRDFLLRFRYIRS [A1 WT IRS peptide], the “IC50, defined as the concentration of peptide capable of causing the death of 50% of the cells after 24 H (CLL cells)” value is approximately 28 µM and the “IC50, defined as the concentration of peptide capable of causing the death of 50% of the cells after 24 H (CLL cells, second patient)” value was found to be 24 µM.
